{"source": "patent US20180362629A1", "about": "(ZOETIS BELGIUM S A, published 2018)", "key": {"[1]": {"target": "T1, recombinant canine β NGF (canine, UniProt Q29074 110-229 (pig entry))", "T1 chain": "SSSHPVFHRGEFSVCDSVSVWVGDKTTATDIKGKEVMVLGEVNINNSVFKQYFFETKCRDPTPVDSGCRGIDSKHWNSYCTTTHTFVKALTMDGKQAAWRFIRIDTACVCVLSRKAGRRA", "assay": "cell-based or functional assay"}, "[2]": {"target": "T1, recombinant canine β NGF", "assay": "SPR (Biacore), mAb captured on goat anti-mouse IgG Fc, canine NGF injected; Expt 1"}, "[3]": {"target": "T1, recombinant canine β NGF", "assay": "direct ELISA, canine NGF coated at 1 µg/ml, mAb at 0.4 µg/ml"}, "[4]": {"target": "T1, recombinant canine β NGF", "assay": "direct ELISA, canine NGF coated at 1 µg/ml, mAb at 2 µg/ml"}, "[5]": {"target": "T1, recombinant canine β NGF", "assay": "direct ELISA, canine NGF coated at 1 µg/ml, mAb at 10 µg/ml"}, "[6]": {"target": "T1, recombinant canine β NGF", "assay": "SPR (Biacore), mAb captured on goat anti-mouse IgG Fc, canine NGF injected; Average; Average", "procedure": "(§1) A biomolecular protein interaction analysis was used to evaluate the binding kinetics of the interaction between the purified anti-NGF hybridoma antibodies and recombinant canine β NGF. The antibodies were captured using a goat anti-mouse IgG FC (10000 RU) surface which was directly immobilized to a CM5 chip using an amine coupling procedure according to the manufacturer's instructions (Biacore). A sample size of 5 μl of antibody at a concentration of 1 μg/ml was captured at 10 μl minute. Recombinant canine NGF was used as the antigen. Canine NGF was injected at 75 μl/min (concentration range: 5-0.039 nM) for mouse antibodies. The association rate was monitored for 3.3 minutes and the dissociation rate was monitored for 10 minutes. Aliquots of canine NGF were also simultaneously injected over a reference reaction CM surface to record any nonspecific binding background. The instrument sensitivity for on-rate is I×IO⁷, such that any on-rate that is faster than I×IO⁷ may not be accurately measured; the instrument sensitivity for off-rate is […], such that any off-rate that is slower than 1×10⁻⁶ may not be accurately measured. Therefore, an on-rate that is faster than 1×10⁷ is recorded as >1×10⁷ and an off-rate that is slower than 1×10⁻⁶ is recorded as <1×10⁻⁶."}, "[7]": {"target": "T1, recombinant canine β NGF", "assay": "SPR (Biacore), mAb captured on goat anti-mouse IgG Fc, canine NGF injected; Expt 1; Expt 1", "procedure": "as §1"}, "[8]": {"target": "T1, recombinant canine β NGF", "assay": "SPR (Biacore), mAb captured on goat anti-mouse IgG Fc, canine NGF injected; Expt 2"}, "[9]": {"target": "T1, recombinant canine β NGF", "assay": "SPR (Biacore), mAb captured on goat anti-mouse IgG Fc, canine NGF injected; Average"}, "[10]": {"target": "T1, recombinant canine β NGF", "assay": "cell-based or functional assay"}, "[11]": {"target": "T1, recombinant canine β NGF", "assay": "SPR (Biacore T100), antibody captured on goat anti-canine IgG, canine NGF injected; Average", "procedure": "(§2) Purified mouse/canine chimeric antibodies and caninized antibodies were analyzed for affinity to canine NGF using a Biacore T100 instrument. Goat anti Canine IgG (Southern Biotech) was immobilized at 5000-10000 RU on a CM5 chip using an amine coupling procedure according to the manufacturer's instructions (Biacore). […] The association rate was monitored for 5 min and the dissociation rate was monitored for 10-20 min. The chip surface was regenerated using 50-75 ul 10 mM glycine pH 1.5 at a flow rate of 50-100 ul/min. Data was analyzed using Biaevaluation T100 software version 2.0.2, software, GE Healthcare Life Sciences (Piscataway, N.J.). Overall affinity parameters established for mouse/canine chimeric antibodies is summarized in Table 22 and for caninized antibodies in Table 23. […] The overall KDs of the mouse/canine anti-NGF mAbs range from about 1300 pM to 1.6 pM. […] The overall KDs of the caninized anti-NGF mAbs range from about 42 pM to 1.2 pM."}, "[12]": {"target": "T1, recombinant canine β NGF", "assay": "cell-based or functional assay"}, "[13]": {"target": "T1, recombinant canine β NGF", "assay": "SPR (Biacore T100), antibody captured on goat anti-canine IgG, canine NGF injected; Expt 1; Expt 1", "procedure": "as §2"}, "[14]": {"target": "T1, recombinant canine β NGF", "assay": "SPR (Biacore T100), antibody captured on goat anti-canine IgG, canine NGF injected; Expt 1", "procedure": "as §2"}, "[15]": {"target": "T1, recombinant canine β NGF", "assay": "SPR (Biacore T100), antibody captured on goat anti-canine IgG, canine NGF injected; Expt 2", "procedure": "as §2"}}, "note": "Read-outs that look alike come from different tables or passages of the source.", "data": [{"binder": "PR-1254982 (antibody, mouse IgG1, V domains shown, also called 3F7; ML130-3F7.4A8) VH: QVQLKESGPGLVAPSQSLSITCTVSGFSLTGYNINWVRQPPGKGLEWLGMIWGYGDTDYNSALKSRLSISKDNSKSQVFLKMNSLQTDDTARYYCARDHYGGNDWYFDVWGTGTTVTVSS VL: DIQMTQTTSSLSASLGDRVTITCRASQDITNYLNWYQQKPDGTVKLLIYYTSRLHSGVPSRFSGSGSGTDYSLTISNLDQEDIATYFCQQGKTLPRTFGGGTKLEIKR", "values": [{"measurement": "IC50, canine NGF-induced TF-1 cell proliferation (70 pM canine NGF)", "setting": "[1]", "result": 0.025, "unit": "nM"}, {"measurement": "Kd", "setting": "[2]", "result": "< 0.1", "unit": "pM"}, {"measurement": "kon", "setting": "[2]", "result": "> 1e+07", "unit": "M⁻¹ s⁻¹"}, {"measurement": "absorbance at 450 nm", "setting": "[3]", "result": 0.095, "unit": "A450"}, {"measurement": "absorbance at 450 nm", "setting": "[4]", "result": 0.142, "unit": "A450"}, {"measurement": "absorbance at 450 nm", "setting": "[5]", "result": 0.208, "unit": "A450"}, {"measurement": "koff", "setting": "[6]", "result": "< 1e-06", "unit": "s⁻¹"}, {"measurement": "koff", "setting": "[7]", "result": "< 1e-06", "unit": "s⁻¹"}, {"measurement": "Kd", "setting": "[8]", "result": "< 0.1", "unit": "pM"}, {"measurement": "koff", "setting": "[8]", "result": "< 1e-06", "unit": "s⁻¹"}, {"measurement": "kon", "setting": "[8]", "result": "> 1e+07", "unit": "M⁻¹ s⁻¹"}, {"measurement": "Kd", "setting": "[9]", "result": "< 0.1", "unit": "pM"}, {"measurement": "kon", "setting": "[9]", "result": "> 1e+07", "unit": "M⁻¹ s⁻¹"}, {"measurement": "PathHunter IC50 (441 pM canine NGF)", "setting": "[10]", "result": 0.15, "unit": "nM"}, {"measurement": "SureFire pERK IC50 (128 pM canine β NGF)", "setting": "[10]", "result": 0.0058, "unit": "nM"}]}, {"binder": "82.3 Canine IgG1/k (antibody, V domains shown, The variable/constant junction was not checked; also called PR-1313519; PR-13113519) VH: EVQLQESGPGLVKPSQTLSLTCTVSGFSLTGYNINWVRQRPDRGLEWLGMIWGYGDTDYNSALKSRLSISKDNTKSQVFLQLTSTTTEDTAVYYCARDHYGGNDWYFDVWGQGTLVTVSS VL: DIQMTQTPLSLSASPGESASITCRASQDITNYLNWYRQKPGQSVKLLIYYTSRLHSGVPSRFSGSGSGTDYSLRISRVEDEDAGLYFCQQGKTLPRTFGQGTKLEIKR", "values": [{"measurement": "Kd", "setting": "[11]", "result": 2, "unit": "pM"}, {"measurement": "koff", "setting": "[11]", "result": "1.7e-05", "unit": "s⁻¹"}, {"measurement": "kon", "setting": "[11]", "result": "8.4e+06", "unit": "M⁻¹ s⁻¹"}, {"measurement": "IC50, canine NGF-induced TF-1 cell proliferation (70 pM canine NGF)", "setting": "[12]", "result": 0.017, "unit": "nM"}, {"measurement": "koff", "setting": "[13]", "result": "2e-05", "unit": "s⁻¹"}, {"measurement": "Kd", "setting": "[14]", "result": 2.4, "unit": "pM"}, {"measurement": "kon", "setting": "[14]", "result": "8.2e+06", "unit": "M⁻¹ s⁻¹"}, {"measurement": "Kd", "setting": "[15]", "result": 1.6, "unit": "pM"}, {"measurement": "koff", "setting": "[15]", "result": "1.3e-05", "unit": "s⁻¹"}, {"measurement": "kon", "setting": "[15]", "result": "8.5e+06", "unit": "M⁻¹ s⁻¹"}]}]}
